Measurements as given in article PMC3223204, “Implantation Serine Proteinase 1 Exhibits Mixed Substrate Specificity that Silences Signaling via Proteinase-Activated Receptors” (PLoS ONE, 2011).
No end group written: not given here.

Molecular target: T1, purified recombinant ISP1 (Mus musculus, UniProt Q924N9)
T1 construct: Myc (C); His6 (C); made in house; host or cells: Pichia pastoris SMD1168
T1 sequence (Q924N9 31-274 limits assumed): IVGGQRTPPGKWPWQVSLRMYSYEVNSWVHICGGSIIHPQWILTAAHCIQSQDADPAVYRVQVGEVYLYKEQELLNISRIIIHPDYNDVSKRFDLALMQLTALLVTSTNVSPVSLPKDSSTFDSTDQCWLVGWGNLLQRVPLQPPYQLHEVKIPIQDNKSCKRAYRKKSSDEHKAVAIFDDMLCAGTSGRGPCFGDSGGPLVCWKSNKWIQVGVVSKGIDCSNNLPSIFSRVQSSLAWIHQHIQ
Test: In vitro cleavage of synthetic peptides by ISP1 (HPLC, MALDI-TOF)
Format: biochemical
Conditions: for Cleavage of synthetic peptide by ISP1: 37°C, up to overnight, HPLC; for ISP1 cleavage site in synthetic peptide: MALDI-TOF / amino acid analysis / ES-MS
Protocol: Synthetic peptides (1 mg/ml) diluted in 25 mM Tris.Cl (pH 7.8) were incubated with 2.0 units of purified recombinant ISP1 (total volume of reaction mixture: 0.5 ml) at 37°C overnight. The reaction was terminated by the addition of 0.1% trifluoroacetic acid and the mixture was separated using HPLC with an acetonitrile gradient in 0.1% v/v trifluoroacetic acid. The positions of the hydrolysis products monitored by ultraviolet absorption (E215) were compared to the elution position of the intact peptide. The masses of the individual peaks (E215) were determined by MALDI-TOF mass spectroscopy and were used to deduce the predicted amino acid sequences, based on the parent peptide sequence (amino acids are abbreviated by their one-letter codes, e.g., A = alanine, R = arginine). Except where indicated, all chemical reagents were from VWR International (Mississauga, ON, Canada).
The rat PAR2 sequence representing the cleavage/activation domain (^30 GPNSKGR/ SLIGRLDT ^45P: tethered ligand sequence, underlined), the 27-mer synthetic sequence derived from the N-terminal residues […] of rat PAR2 (I^48 […] ^74) and a 17-mer synthetic peptide sequence derived from extracellular loop 2 of rat PAR2 (V^229 LPEEVLVGDMFSYFLS ^245) were selected for the proteolysis studies. […] The 17-mer ^229–245PAR2 sequence is the potential binding site of the activating peptide. […] These peptides at a concentration of 100 µM were incubated with implantation serine proteinase 1 for varying times up to overnight at 37°C. The incubation buffers were identical to the buffers used for the measurements of enzymatic activities using AMC-substituted peptide substrates. Reactions were terminated either by rapid freezing in liquid nitrogen or by the addition to the proteolysis sample of 2 volumes of a “stop solution” comprising 50% acetonitrile and 0.1% trifluoroacetic acid in water. Samples were either subjected immediately to HPLC analysis, with collection of the E215 peak fractions, or were stored at −80°C for further processing. The cleavage products in peaks of absorption resolved by HPLC were quantified (E215), collected and their identity was established by mass spectral MALDI analysis. Some of the peaks recovered from the HPLC columns, but not ascertained by mass spectral analysis (MALDI-TOF), were identified by total amino acid analysis. Analyses were done at the Southern Alberta Mass Spectrometry Facility at the University of Calgary, Faculty of Medicine (Calgary, Alberta, Canada).

Substance	Cleavage of synthetic peptide by ISP1	ISP1 cleavage site in synthetic peptide
ITGKGAPVEPGFSVDEFSASVLTGKLT-NH2 [27 mer peptide]	successfully cleaved	between an alanine (P1 sub site) residue and a serine (P1′ sub site) residue
VLPEEVLVGDMFSYFLS [17-mer synthetic peptide, derived from the extracellular loop 2 domain of rat PAR2]	successfully cleaved	between a tyrosine (P1 sub site) residue and a phenylalanine (P1′ sub site) residue; a phenylalanine (P1 sub site) and a leucine (P1′ sub site) residue; a leucine (P1 sub site) and a serine (P1′ sub site) residue
RRFYIQ-NH2	cleaved by ISP1	
cleavage/activation sequence of PAR2: sequence representing the cleavage/activation site of rat PAR2 (30 GPNSKGR/ SLIGRLDT 45P) (GPNSKGRSLIGRLDTP; UniProt Q63645 30-45, looked up, fragment)	not cleaved	
